Legend:
[1] = target: mouse GITR (on activated mouse T cells) (mouse) (UniProt O35714); test: in vitro binding on activated mouse CD8+ T cells
[2] = target: mouse GITR (on activated mouse T cells) (mouse) (UniProt O35714); test: in vitro binding on activated mouse CD4+ T cells
[3] = target: T1, human GITR (on activated human T cells) (human, UniProt Q9Y5U5 26-241); test: in vitro binding on activated human CD8+ T cells
T1 construct: also called glucocorticoid-inducible TNF receptor; TNFRSF18
T1 sequence: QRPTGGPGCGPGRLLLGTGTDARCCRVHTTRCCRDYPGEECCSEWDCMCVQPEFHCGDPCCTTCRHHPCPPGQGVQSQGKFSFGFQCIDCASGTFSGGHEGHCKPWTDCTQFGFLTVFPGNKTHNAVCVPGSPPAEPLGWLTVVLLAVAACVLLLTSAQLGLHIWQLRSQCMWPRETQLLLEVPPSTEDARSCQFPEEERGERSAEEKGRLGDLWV

[4] = target: T1, human GITR (on activated human T cells); test: in vitro binding on activated human CD4+ T cells

Sequence of mouse GITR (on activated mouse T cells) (mouse) (O35714 20-228): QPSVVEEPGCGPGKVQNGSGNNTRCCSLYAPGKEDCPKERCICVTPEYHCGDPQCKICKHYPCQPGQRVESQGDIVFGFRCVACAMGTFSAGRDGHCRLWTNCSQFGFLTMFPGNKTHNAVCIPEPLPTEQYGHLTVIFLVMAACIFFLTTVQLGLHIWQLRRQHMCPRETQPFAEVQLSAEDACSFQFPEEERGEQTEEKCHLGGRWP

Molecule: DTA1-mIgG2b (antibody)
- EC50 [1]: 0.33 nM
- EC50 [2]: 0.33 nM

Molecule: DTA1-mIgG2a (antibody)
- EC50 [1]: 0.17 nM
- EC50 [2]: 0.14 nM

B1: 28F3.IgG1 (antibody, V domains shown)
VH: QVQLVESGGGVVQPGRSLRLSCAASGFTFSSYGMHWVRQAPGKGLEWVAVIWYEGSNKYYADSVKGRFTISRDNSKNTLYLQMNSLRAEDTAVYYCARGGSMVRGDYYYGMDVWGQGTTVTVSS
VL: AIQLTQSPSSLSASVGDRVTITCRASQGISSALAWYQQKPGKAPKLLIYDASSLESGVPSRFSGSGSGTDFTLTISSLQPEDFATYYCQQFNSYPYTFGQGTKLEIKR
notes: Fully human IgG1 agonist antibody to GITR; also called GITR Ab; anti-GITR agonist Ab 28F3.IgG1
- EC50 [3]: 0.44 nM
- EC50 [4]: 0.37 nM

From patent US20230416388A1 (Bristol-Myers Squibb, published 2023)
